B1: GST–Sec2(aa 1–160)p (domain or fragment)
chain: MDASEEAKRVSIQVTSLSTQLIESVDKQSHLEEQLNKSLKTIASQKAAIENYNQLKEDYNTLKRELSDRDDEVKRLREDIAKENELRTKAEEEADKLNKEVEDLTASLFDEANNMVADARKEKYAIEILNKRLTEQLREKDTLLDTLTLQLKNLKKVMHS
B2: His6–Ypt32p (natural protein)
chain: MSNEDYGYDYDYLFKIVLIGDSGVGKSNLLSRFTTDEFNIESKSTIGVEFATRTIEVENKKIKAQIWDTAGQERYRAITSAYYRGAVGALIVYDISKSSSYENCNHWLTELRENADDNVAVGLIGNKSDLAHLRAVPTDEAKNFAMENQMLFTETSALNSDNVDKAFRELIVAIFQMVSKHQVDLSGSGTNNMGSNGAPKGPTISLTPAPKEDKKKKSSNCC
B3: His6–Sec4p (natural protein)
chain: MSGLRTVSASSGNGKSYDSIMKILLIGDSGVGKSCLLVRFVEDKFNPSFITTIGIDFKIKTVDINGKKVKLQLWDTAGQERFRTITTAYYRGAMGIILVYDVTDERTFTNIKQWFKTVNEHANDEAQLLLVGNKSDMETRVVTADQGEALAKELGIPFIESSAKNDDNVNEIFFTLAKLIQEKIDSNKLVGVGNGKEGNISINSGSGNSSKSNCC

One experiment deals with T1, Ypt32p (Saccharomyces cerevisiae, UniProt P51996).
T1 sequence (P51996 2-222): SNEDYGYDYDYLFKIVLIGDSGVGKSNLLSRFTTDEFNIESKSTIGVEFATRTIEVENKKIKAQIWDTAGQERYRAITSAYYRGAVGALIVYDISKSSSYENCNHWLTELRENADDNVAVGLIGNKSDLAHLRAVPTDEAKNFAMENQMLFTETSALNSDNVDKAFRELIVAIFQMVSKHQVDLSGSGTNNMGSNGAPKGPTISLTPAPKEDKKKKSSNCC
Kind of experiment: GTP hydrolysis. The conditions noted are these: with stoichiometric Sec2p (GAP activity). Type of experiment: biochemical.

The target of the experiment “His6–Sec4p” is B3. Description: pull-down.
Another experiment has as its target T2, GST–Sec2p (full-length) (S. cerevisiae, UniProt P17065 1-759).
T2 sequence: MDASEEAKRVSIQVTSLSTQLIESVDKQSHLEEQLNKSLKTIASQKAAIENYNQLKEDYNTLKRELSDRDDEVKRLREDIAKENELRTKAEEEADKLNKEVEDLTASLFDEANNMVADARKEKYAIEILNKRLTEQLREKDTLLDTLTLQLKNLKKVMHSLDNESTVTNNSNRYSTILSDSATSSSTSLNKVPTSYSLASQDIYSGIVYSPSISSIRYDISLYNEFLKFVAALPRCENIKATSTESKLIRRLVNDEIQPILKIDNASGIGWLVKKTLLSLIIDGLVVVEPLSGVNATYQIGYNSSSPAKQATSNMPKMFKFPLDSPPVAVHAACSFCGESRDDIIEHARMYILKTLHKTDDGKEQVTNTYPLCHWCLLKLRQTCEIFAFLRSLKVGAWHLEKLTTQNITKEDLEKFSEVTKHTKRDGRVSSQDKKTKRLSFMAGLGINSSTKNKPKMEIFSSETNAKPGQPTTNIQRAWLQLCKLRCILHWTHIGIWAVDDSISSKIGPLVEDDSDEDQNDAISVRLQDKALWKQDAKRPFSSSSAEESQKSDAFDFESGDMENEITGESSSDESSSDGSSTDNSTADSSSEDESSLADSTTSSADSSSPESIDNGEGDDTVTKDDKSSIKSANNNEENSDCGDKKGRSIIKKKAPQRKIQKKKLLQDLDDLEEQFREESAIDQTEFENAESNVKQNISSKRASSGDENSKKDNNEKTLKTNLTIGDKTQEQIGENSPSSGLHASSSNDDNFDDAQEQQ
Description: pull-down.

The target in a further experiment is T3, GST–Sec2-59(aa 1–374)p (S. cerevisiae, UniProt P17065 1-374).
T3 sequence: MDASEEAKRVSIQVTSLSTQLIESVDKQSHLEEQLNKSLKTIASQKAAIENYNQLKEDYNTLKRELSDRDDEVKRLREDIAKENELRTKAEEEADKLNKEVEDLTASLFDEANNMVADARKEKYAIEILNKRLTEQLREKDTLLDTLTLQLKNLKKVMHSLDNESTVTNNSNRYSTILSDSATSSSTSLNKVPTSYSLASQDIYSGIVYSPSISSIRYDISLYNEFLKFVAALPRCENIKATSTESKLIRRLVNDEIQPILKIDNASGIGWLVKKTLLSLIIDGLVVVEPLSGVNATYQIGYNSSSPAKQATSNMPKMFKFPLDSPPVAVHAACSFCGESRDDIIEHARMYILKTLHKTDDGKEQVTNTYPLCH
Description: pull-down.

The target of a further experiment is T4, GST–Sec2-70 (aa 1–508) (S. cerevisiae, UniProt P17065 1-508).
T4 sequence: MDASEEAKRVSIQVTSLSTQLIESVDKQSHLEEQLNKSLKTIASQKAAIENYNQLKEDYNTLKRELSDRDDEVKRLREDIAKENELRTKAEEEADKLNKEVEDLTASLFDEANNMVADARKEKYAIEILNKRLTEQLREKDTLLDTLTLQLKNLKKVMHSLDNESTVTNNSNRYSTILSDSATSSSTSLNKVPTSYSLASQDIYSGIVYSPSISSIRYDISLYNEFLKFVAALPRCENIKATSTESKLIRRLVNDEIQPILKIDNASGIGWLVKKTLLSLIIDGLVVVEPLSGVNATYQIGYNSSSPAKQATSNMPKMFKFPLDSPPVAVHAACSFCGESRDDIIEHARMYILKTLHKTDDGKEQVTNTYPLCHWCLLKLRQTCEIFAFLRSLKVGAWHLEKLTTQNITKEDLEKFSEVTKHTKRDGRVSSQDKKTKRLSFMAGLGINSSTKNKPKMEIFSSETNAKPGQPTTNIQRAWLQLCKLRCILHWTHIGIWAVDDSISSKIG
Description: pull-down.

The target of another experiment is T5, GST–Sec2(aa 161–759) (S. cerevisiae, UniProt P17065 161-759).
T5 sequence: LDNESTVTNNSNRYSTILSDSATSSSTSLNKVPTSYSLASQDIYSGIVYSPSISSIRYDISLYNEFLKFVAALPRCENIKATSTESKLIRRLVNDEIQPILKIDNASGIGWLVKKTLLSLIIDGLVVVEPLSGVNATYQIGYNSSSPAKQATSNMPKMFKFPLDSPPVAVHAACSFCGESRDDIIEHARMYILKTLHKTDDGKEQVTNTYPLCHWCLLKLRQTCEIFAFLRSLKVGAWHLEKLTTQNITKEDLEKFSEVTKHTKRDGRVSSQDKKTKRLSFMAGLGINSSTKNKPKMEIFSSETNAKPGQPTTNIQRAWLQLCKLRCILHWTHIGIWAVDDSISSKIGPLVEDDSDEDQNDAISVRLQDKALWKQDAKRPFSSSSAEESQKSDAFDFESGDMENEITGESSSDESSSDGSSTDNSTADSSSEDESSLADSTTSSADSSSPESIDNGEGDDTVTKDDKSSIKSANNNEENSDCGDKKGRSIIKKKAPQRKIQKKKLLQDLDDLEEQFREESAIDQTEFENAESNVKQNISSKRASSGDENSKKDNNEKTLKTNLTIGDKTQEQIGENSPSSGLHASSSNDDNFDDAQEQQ
Description: pull-down.

With `Nc1nc2c(ncn2[C@@H]2O[C@H](COP(=O)(O)OP(=O)(O)OP(=O)(O)O)[C@@H](O)[C@H]2O)c(=O)[nH]1` [GTP], the GTP hydrolysis entry on Ypt32p was “we observed a fivefold increase in GTP hydrolysis by Ypt32p (unpublished data)”.

Regarding B1, the binding result with His6–Sec4p was “binds”.

With B2, the binding result in the experiment with GST–Sec2p (full-length), with GST–Sec2-59(aa 1–374)p, with GST–Sec2-70 (aa 1–508) and with GST–Sec2(aa 161–759) was “binds” throughout.

In the case of B3, the “amount bound relative to Ypt32p (fold)” value in the experiment with GST–Sec2p (full-length) came out at 4 fold.
